Assay: yeast display, Sf9 membrane polyspecificity reagent, FACS + sequencing; frameworks hold sequencing errors
Summary of the method: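 In a synthetic yeast display library (Saccharomyces cerevisiae BJ5465), nanobody expression was induced with galactose for 36–48 hours. FACS gates were set low and high (top ~1%) using anti-HA fluorescence for expression and streptavidin fluorescence for binding of the Sf9 membrane reagent. Each polyreactivity label is drawn from the gate of origin.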

QVQLVESGGGLVQAGGSLRLSCAASGLTFAFNAMGWYRPAPGKERELVAAISKSGGSTYYADSVKGRFTISRDNAKNTVYLQMNSLKPEDTAVYYCAAGFWYYSYPTLYEYGYWGQGTQVTVSS
polyreactivity (PSR sort gate): low polyreactivity

QVQLVESGGGLVQAGGSLRLSCAASGLTFAKYAMGWYRQAPGKERELVAAIRSGDDTTYADSVKGRFTISRDNAMNTVYLQMISLKPEDTAVYYCAARPIHYPPYYYWGQGTQVTVSS
polyreactivity (PSR sort gate): high polyreactivity

QVQLVESGGGLVQAGGSLRLSCAASGLTFALYAMGWYRQAPGKERELVAAITGSGGSTYYADSVKGRFTISRDTAKNSVYLQMNSLKPEDTAVYYCNKLFYRWRIVDKYYYCGQGTQVTVSS
polyreactivity (PSR sort gate): high polyreactivity

QVQLVESGGGLVQAGGSLRLSCAASGLTFASNAMGWYRQAPGKERELVAAISWSDGSTYYADSVKGRFTISRDNAKNTVYLQMNSLKPEDTAVYYCAAESYFFSPRTREKFDYWGQGTQVTVSS
polyreactivity (PSR sort gate): low polyreactivity

QVQLVESGGGLVQAGGSLRLSCAASGLTFASYAMGWYRPAPGKERELVARISRSGGSTYYADSVKGRFTISRDNAKNTVYLQMNSLKPEDTAVYYCAADYIFRRYPVGGIYDYDYWGQGTQVTVSS
polyreactivity (PSR sort gate): high polyreactivity

QVQLVESGGGLVQAGGSLRLSCAASGLTFAYNTMGWYRQAPGKEREFVASISSSGGNTYYADSVKGRFTISRDNAKNTVYLQMNSLKPEDTAVYYCAAKKKYHYVASYKRFEYWGQVTQVTVSS
polyreactivity (PSR sort gate): low polyreactivity

QVQLVESGGGLVQAGGSLRLSCAASGLTFAYYDMGWYRPAPGKERELVAAITSGGTTNYADSVKGRFTISRDNAKNTVYLQMNSQKPEDTADYYCAADRYYWGRYTLNYWGQGTQVTVSS
polyreactivity (PSR sort gate): low polyreactivity

QVQLVESGGGLVQAGGSLRLSCAASGLTFDDYAMGWYRPAPWKEREFVATITLRGGSTYYADSVKGRFTISRDNAKNTVYLQLNSLKPEDTAVYYCNTDLGYSLEWDYDYWGQGTQVTVSS
polyreactivity (PSR sort gate): low polyreactivity

QVQLVESGGGLVQAGGSLRLSCAASGLTFDDYAMGWYRQAPGKERELVAAINWSGSNTYYADSVKGRFTISRDNAKNTVYLQMNSLKPEDTAVYYCATYSRIFKWEYYYWGQGTQVTVSS
polyreactivity (PSR sort gate): high polyreactivity

QVQLVESGGGLVQAGGSLRLSCAASGLTFDKNVMGWYRQAHGKERELVAAISRSGGTTYYADSVKGRFTISRDNAKYTVYLQMNSLKPEDTAVYYCAKRAWTGYGYYYWGQGTQVTVSS
polyreactivity (PSR sort gate): high polyreactivity

QVQLVESGGGLVQAGGSLRLSCAASGLTFDLYNMGVYRKAPGKERELVAAISLSGGSTYYADSVKGRFTISRDNAKNTVYLQMNILKPDYTAVYYCAAAHSSSVIVEYDYWGQGTQVTVSS
polyreactivity (PSR sort gate): low polyreactivity

QVQLVESGGGLVQAGGSLRLSCAASGLTFDSNAMGWYRQAPGKERELVAAISGSVGSTYYADSVKGRFTISRDNAKNTVYLQMNSLKPEDTAVYYCNASSVDKGYDYWGQGTQVTVSS
polyreactivity (PSR sort gate): low polyreactivity

QVQLVESGGGLVQAGGSLRLSCAASGLTFDVYTMGWYRQAPGKERELVATISETYYADSVKGRFTISRDNAKNTVYLQMNSLKPEDTAVYYCAANGFKAQYRDIVYDYGYWGQGTQVTVSS
polyreactivity (PSR sort gate): low polyreactivity

QVQLVESGGGLVQAGGSLRLSCAASGLTFDYYAMGWYRQAPGKERELVAVISRVGSTYYADSVKGRFTISRDNAKNTVYLQINSLKPEDTAVYYCAADLWHSYQDMYYWGQGTQVTVSS
polyreactivity (PSR sort gate): low polyreactivity

QVQLVESGGGLVQAGGSLRLSCAASGLTFERYAMGWYRQAPGKERELVAAISIRGGSTYYADSVKGRFTISRDNAKNTVYLQMNSLKPEDTAVYYCNAESFSFYPSWHEYDYWGQGTQVTVSS
polyreactivity (PSR sort gate): low polyreactivity

QVQLVESGGGLVQAGGSLRLSCAASGLTFEVYAMGWYRQARGKERELVAAISSGGGATYYADSVKGRFTISRDNAKNTVYLQMNSLKPEDTAVYYCAAVDPYERYVYWGQGTQVTVSS
polyreactivity (PSR sort gate): low polyreactivity

QVQLVESGGGLVQAGGSLRLSCAASGLTFEYNAMGWYRQAPGKERELVATISNGGITSYADSVKGRFTISRDNAKNTVYLQMNSLKPEDTAVYYCAASYADSPTTDQLWLEYDSWGQGTQVTVSS
polyreactivity (PSR sort gate): low polyreactivity

QVQLVESGGGLVQAGGSLRLSCAASGLTFFGNAMGWYRQAPGKERELVATISSGGGTSYADSVKGRFTISRDNAKNTVYLQMNSLKPEDTAVYYCAADIVEEFDYWGQGTQVTVSS
polyreactivity (PSR sort gate): low polyreactivity

QVQLVESGGGLVQAGGSLRLSCAASGLTFFGYTMGWYRQAPGKEREFVADITWSGGSTYYADSVKGRFTISRDNAKNTVYLQMNSLKPEVTAVYYCAVAPPNWDPFVDDTYLMDYWGQGTQVTLSS
polyreactivity (PSR sort gate): low polyreactivity

QVQLVESGGGLVQAGGSLRLSCAASGLTFFWNAMGWYRQAPGKERELVAAISYSGGSTSYADSVKGRFTISRDNAKNSVYLQMNSLKPEDTAVYYCAAEYWYGPSKGDYWGQGTQVTVSS
polyreactivity (PSR sort gate): high polyreactivity

QVQLVESGGGLVQAGGSLRLSCAASGLTFGANDMGWYRQAPGKERELVAAIDWSGGSTFYADSVKGRFTISRDNAKNTVYLQMNSLKPEDTAVYYCAALGFGYPYPEYDYWGQGTQVTVSS
polyreactivity (PSR sort gate): low polyreactivity

QVQLVESGGGLVQAGGSLRLSCAASGLTFGDYSMGWYRQAPGKERELVAAITWSGASTYYADSVKGRFTISRDNGMNTVYLQMNSLKPEDTAVYYCAAERTPSYRAYDYWGQGTQVTVSS
polyreactivity (PSR sort gate): low polyreactivity

QVQLVESGGGLVQAGGSLRLSCAASGLTFGDYVMGWYRQAPGKERELVATITSDGGTTYADSVKGRFTISRDNAKNTVYLQMNSLKPEVTAVYYCYADAVVDNYVGFSAAGFDYWGQGTQVTVSS
polyreactivity (PSR sort gate): low polyreactivity

QVQLVESGGGLVQAGGSLRLSCAASGLTFGFYAMGWYRQAPGKERELVAGISNGGSTNYADSVKGRFTISRDNAKNTVYLQMNSLKPEDTAVYYCAARLYARRLYDYWGQRTQVTVSS
polyreactivity (PSR sort gate): low polyreactivity

QVQLVESGGGLVQAGGSLRLSCAASGLTFGGNAMGWYRQAPGKERELVAAISWSDDTTDYADSVKGRLTISRDNAKNTVYLQMNSLKPEDTAVYYCAARLPFEHVDYWGQGTQVTVSS
polyreactivity (PSR sort gate): low polyreactivity

QVQLVESGGGLVQAGGSLRLSCAASGLTFGHYAMGWYRQAPGKERELVATISSRGVSTRYADSVKGRFTISRDNAKNTVYLQMNSLKPEDTAVYYCNARDYTWGKYYSSKIGYYYWGQGTQVTVSS
polyreactivity (PSR sort gate): high polyreactivity

QVQLVESGGGLVQAGGSLRLSCAASGLTFGLNAMGWYRQAPGKERELVAAITWSGGSTYYADSVKGRFTISRDNAKNTVYLQMNSLKPEDTAVYYCATDNWSVNGGYNYWGQGTQVTVSS
polyreactivity (PSR sort gate): low polyreactivity

QVQLVESGGGLVQAGGSLRLSCAASGLTFGPYAMGWYRQAPGKERELVAAITSGGYTNYADSVKGRFTISRDNAMNTVYLQMNSLKPEDTAVYFCATSYYLAYRSITPYDYWGQGTQVTVSS
polyreactivity (PSR sort gate): low polyreactivity

QVQLVESGGGLVQAGGSLRLSCAASGLTFGRYAMGWYRPAPGKERELVAAISSGGSTYYADSVKGRFTISRDNAKNTVYLQMNSLKPEDTAVYYCAADYVGWYFVSGRDYWGQGTQVTVSS
polyreactivity (PSR sort gate): low polyreactivity

QVQLVESGGGLVQAGGSLRLSCAASGLTFGTNAMGWYIQAPGKERELVAAISTSSGSTYYADSVKGRFTISRDNAKNTVYLQMNSLKPEDTAVYYCAAVTVTKLSYYRYYYWGQGTQVTVSS
polyreactivity (PSR sort gate): low polyreactivity

QVQLVESGGGLVQAGGSLRLSCAASGLTFGYYAMGWYRPAPGKEREFVAAISKSGGGTYYADSVKGRFTISRDNAKNTVYLQMNSLKPEDTAVYYCAARWFVGYNYWGQGTQVTVSS
polyreactivity (PSR sort gate): high polyreactivity

QVQLVESGGGLVQAGGSLRLSCAASGLTFHVNAMGWYRQAPGKERELVAGITFSGGSTYYADSVKGRFTISRDNAKNTVYLLMNSLTPEDTAVYYCAADARFYAYYYWGQGTQVSVSS
polyreactivity (PSR sort gate): low polyreactivity

QVQLVESGGGLVQAGGSLRLSCAASGLTFHYYAMGRYRQATGKERELVAVIRGSCTSTYYADSVKGRFTISRDNAKNTVYLQMNSLKPEDTAVYYFAAPYQYRRSGRVLGKYDSRGQGTQVTVSS
polyreactivity (PSR sort gate): high polyreactivity

QVQLVESGGGLVQAGGSLRLSCAASGLTFIRYAMGWNRQAPGKERELVASISRGGSTYYADSVKGRFTISRDNAKNTVYLQMNSLKPEDTAVYYCAAQHVGHNYYNSGFYYWGQATQVTVSS
polyreactivity (PSR sort gate): low polyreactivity

QVQLVESGGGLVQAGGSLRLSCAASGLTFIYKAMAWYRQAPGKERELVAAISGNGGDTYYADSVKGRFTISRDNAKKTVYLQMNSLKPEDTAVYYCAADYAYTPITWDEYWGQGTQVTVSS
polyreactivity (PSR sort gate): low polyreactivity

QVQLVESGGGLVQAGGSLRLSCAASGLTFIYYSMGWYRQAPGKERELVAAISVSGGSTYYADSVKGRFTISRDNAKNTVYLQMNSLKPEYTAVYYCAGDWFVHKPRYQYSFDYWGQGTQVTVSS
polyreactivity (PSR sort gate): low polyreactivity

QVQLVESGGGLVQAGGSLRLSCAASGLTFKRNAMGWYRPAPGKERELVAAIRYSTDSTNCADSVKGRFTISRDNAKNTVYLQMNSLKPEDTAVYYCAKDKQDYEYWGQGTQVTVSS
polyreactivity (PSR sort gate): low polyreactivity

QVQLVESGGGLVQAGGSLRLSCAASGLTFKYYAMGWYRQAPGKERELVAAITSTGGRTYYADSVKGRFTISRDNAKNTVYLQMNSLKPEDTAVYYCAKDTHWAYYWGQGTQVTVSS
polyreactivity (PSR sort gate): low polyreactivity

QVQLVESGGGLVQAGGSLRLSCAASGLTFLDYAMGWYRPAPGKERELVAAITSGGSTNYADSVKGRFTISRDNAKNTVYLQMNSLKPEDTAVYYCATDLEVSAYDYWGQGTQVTVSS
polyreactivity (PSR sort gate): low polyreactivity

QVQLVESGGGLVQAGGSLRLSCAASGLTFLNKAMGWYREAPGKERELVAAISRGGSTNYADSVKGRFTISRDNAKNTVYLQMNSLKPQDTAGYYCAAQIFESAYGMDYWGQGTQVTVSS
polyreactivity (PSR sort gate): low polyreactivity

QVQLVESGGGLVQAGGSLRLSCAASGLTFLVYAMGWYRQAPGKERELVAAITSIGDSTFYADSVKGRFTISRDNAKNTVYLQMNSLKPEDSAVYYCNADGPAGDIKFTLMDYDYWGQGTQVTVSS
polyreactivity (PSR sort gate): low polyreactivity

QVQLVESGGGLVQAGGSLRLSCAASGLTFLVYAMGWYRQAPGKERELVAAITSIGDSTFYADSVKGRFTISRDNAKNTVYLQMNSLKPEDTAVYYCNADGPAGDIKFTLLDYDYWGQGTQVTVSS
polyreactivity (PSR sort gate): low polyreactivity

QVQLVESGGGLVQAGGSLRLSCAASGLTFLWYAMGWYRQAPGKERELVAAITSGGRTKYADSVKGRFTISRDNAKNTVYLQMNSLKPEDTAVYYCAAYTQWWGYDYWGQGTQVTVSS
polyreactivity (PSR sort gate): high polyreactivity
